Experiment [1] concerns the target T1, SARS-CoV-2 Wuhan-Hu-1 spike receptor-binding domain (RBD) (SARS-CoV-2 Wuhan-Hu-1, UniProt P0DTC2). Nature of the experiment: ELISA.
The target in experiment [2] is T1, SARS-CoV-2 Wuhan-Hu-1 spike …. The experiment can be described thus: crystal structure.
Experiment [3] has the same target. Nature of the experiment: BLI. Background: Biolayer interferometry detects binding as a change in optical thickness at a sensor tip.

B1: NCV2SG53 monoclonal antibody (human IgG) (antibody, V domains shown)
VH: QVQMVESGGGLVRPGGSLRLSCAASGFTFSDYYMSWIRQAPGKGLEWISYISSSGSSMNYADSVKGRFTISRDNAKNSLFLQMNSLRAEDTAVYYCAREFDLTKIIMVPPYWGQGTLVTVSS
VL: AIQLTQSPSSLSASVGDRVTITCRASQGISSYLAWYQQKPGKAPKVLIYAASTLQSGVPSRFSGSGSGTDFTLTISSLQPEDFATYYCQQLKSYPLTFGGGTKVEIT
B1: the binding result in experiment [1] is “binds”.

B2: Fab fragment of NCV2SG53 (Fab, V domains shown)
VH: QVQMVESGGGLVRPGGSLRLSCAASGFTFSDYYMSWIRQAPGKGLEWISYISSSGSSMNYADSVKGRFTISRDNAKNSLFLQMNSLRAEDTAVYYCAREFDLTKIIMVPPYWGQGTLVTVSS
VL: AIQLTQSPSSLSASVGDRVTITCRASQGISSYLAWYQQKPGKAPKVLIYAASTLQSGVPSRFSGSGSGTDFTLTISSLQPEDFATYYCQQLKSYPLTFGGGTKVEIT
Consider B2, for which the binding result in experiment [2] was “binds”.

B3: Fab fragment from NCV2SG48 (Fab, V domains shown)
VH: EVQLVESGGGLIQPGGSLRLSCAASGFIVSRNYMNWVRQAPGKGLEWVALIYSGGSTFYADSVKGRFTISRDNSKNTLYLQMNSLRAEDTAVYYCARDLVVYGLDYWGQGTLVTVSS
VL: AIQLTQSPSSLSASVGDRVTITCRASQGISSHLAWYQQKPGKAPKLLIFAASTLQSGVPSRFSGSGSGTDFTLTISSLQPEDFATYYCQHLNSNPPITFGQGTRLEIK
For the molecule B3, the binding result in experiment [2] is on record as “binds”.

B4: NCV2SG48 monoclonal antibody (human IgG) (antibody, V domains shown)
VH: EVQLVESGGGLIQPGGSLRLSCAASGFIVSRNYMNWVRQAPGKGLEWVALIYSGGSTFYADSVKGRFTISRDNSKNTLYLQMNSLRAEDTAVYYCARDLVVYGLDYWGQGTLVTVSS
VL: AIQLTQSPSSLSASVGDRVTITCRASQGISSHLAWYQQKPGKAPKLLIFAASTLQSGVPSRFSGSGSGTDFTLTISSLQPEDFATYYCQHLNSNPPITFGQGTRLEIK
As to B4, the binding result in experiment [3] is “binds”.

Source of the values: publication doi:10.1101/2022.01.26.477937 (bioRxiv, 2022).
